From article PMC4493562, “Mechanistic studies of a novel C-S lyase in ergothioneine biosynthesis: the involvement of a sulfenic acid intermediate” (Scientific Reports, 2015) come the findings set out here.

Substrate in series [1]: C[N+](C)(C)[C@@H](Cc1cnc(SC[C@H](N)C(=O)O)[nH]1)C(=O)[O-]
Nature of the series: purified protein. The series is classed as biochemical, Mycolicibacterium smegmatis. The conditions noted are these: 50 mM KPi pH 8.0, 1.0 mM DTT, 10 nM EgtE, 0.13 mM NADH, LDH.

Substrate in series [2]: C[N+](C)(C)[C@@H](Cc1cnc([S+]([O-])C[C@H](N)C(=O)O)[nH]1)C(=O)[O-]
Nature of the series: purified protein. The series is classed as biochemical, Mycolicibacterium smegmatis. The conditions noted are these: 50 mM KPi pH 8.0, 1.0 mM DTT, 10 nM EgtE, 0.13 mM NADH, LDH.

B1: EgtE (Mycolicibacterium smegmatis MC2 155) (protein)
chain: MMLAQQWRDARPKVAGLHLDSGACSRQSFAVIDATTAHARHEAEVGGYVAAEAATPALDAGRAAVASLIGFAASDVVYTSGSNHAIDLLLSSWPGKRTLACLPGEYGPNLSAMAANGFQVRALPVDDDGRVLVDEASHELSAHPVALVHLTALASHRGIAQPAAELVEACHNAGIPVVIDAAQALGHLDCNVGADAVYSSSRKWLAGPRGVGVLAVRPELAERLQPRIPPSDWPIPMSVLEKLELGEHNAAARVGFSVAVGEHLAAGPTAVRERLAEVGRLSRQVLAEVDGWRVVEPVDQPTAITTLESTDGADPASVRSWLIAERGIVTTACELARAPFEMRTPVLRISPHVDVTVDELEQFAAALREAP
notes: cloning details in supplement
What is called Km is the concentration of substrate that gives half-maximal velocity. A word on the kcat: it is the number of substrate molecules converted per active site and unit of time at saturation. In the case of B1, the Michaelis constant (Km) in series [1] amounted to 1960 ± 250 µM; in series [2] it was 121.2 ± 6.6 µM. Besides, the kcat in series [1] was found to be 7.93 ± 0.05 s⁻¹; in series [2], 25.27 ± 0.45 s⁻¹.
